Test: protease stability score; higher = more stable; yeast display proteolysis, trypsin and chymotrypsin;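 further: relative to predicted unfolded state with 0 unfolded-like and 1 meaning tenfold more protease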

| Sequence | protease stability score |
| --- | --- |
| TTEHAATLFLTSMITGDWEWISRLFDPHVRLVFNGVTNVGRELAIHKLVETVLKLGVKHTHIDEMRLYGDKVEVHVTLRVGDKTTNIDIEVDWVDGQVKEVHIDTRTEDTSKILKHVYK | 0.109 |
| SEDETHFKHMWKLILDTSITGNEELLKTLFDPHYRLSVDGVEFHGREALRYWLDRVDHVEDHRIKSFELQGDKIYMNGESKTQQGDKTHSHDIHIFTKKIDGQWVIHSLHVR | 1.16 |
| NHDEEHLKRLLEDEREMLETGNEDEIRRLLDPHVRLDIDGRNIHGREEVAKWMVKLALRVDVFIIRVKRFHIQGDYIYFDTHIEEIVNGQHISFDVMIIIWKYNGRWLIHSIIVR | 1.58 |
| SEVEEFVKRVIHLFHKAFLTGDEHTLIELIDPNARYDVDGRDVHGREIIVEFISTMWRDRGIRIKHVHIEERRYINGRIEIHSKIDVTIGDKREHLETSMIWVKINGQWFIEILIVR | 0.233 |
| TEEHEVALRFWRMFLEAITTGDEKRIKELLDPHVQIEINGKHLHGMETLIHRINEIRETWKHVEIKTVEFYNGQIHSHFRVHYVFHVNGKEIERDTDVLLILTKVDGRWHIKSIHIH | 2.52 |
| SEEKEMVLHLAELLIELEFTGNWEKLFELADPNVLSRINGRELHGMEKHRKHWEEIRIHRVHIEKVHIETIGDKAKLDIHGRLDGEVNGVRDISESVIHIVSRKYDGRWIVKSIEIRVH | 1.22 |
| NELQYKILHALRLFVESLLTGDPTTIERLLDPDARNQWDGVHHVGMEEWSRFLEELRIQIHDLEFKHIEIVDGQLRVDGREDMIIDVNGVRTRTNRKLRLIIVKFDGRWRIESVKVE | 1.22 |
| DEDDENIEKVLRTLFKLIHTGDWRTWLRFFDPHVKLEIGDKRLHGREVAEEFIRHRIEHLGVDRVEVRLHSFDKQGNKLHSDMRLYVGDKEFNVEMHMEKVNGKWIVRVFSID | 1.38 |
| DEHTEDTRHLEEFMLRAIKTGDEHILKRLMDPNARNEQGDKHQHGMEIIAEEWSRIKNVKVIFHRVRIQGDKIDVDGELIVNGVTMRVEFYSRKIDGRWVIHSVHFE | 1.17 |
| DEDEKLKQEWMELFLESLRTGDWRILRKLIDPNVRLEVGDKQVIGREKVLEILKKILDEIRNQDVKLHDYTEINGRIYLDVELDLQQGDKRITLKIHTVLEKYDGRWIIRTFRIE | 1.23 |
| EEVEEEVERATRRHVVDLLTGNWDKLIHEMDPNTYLLINGVKFHGREVYEILLREFIRKYKNARYHITVRDYHVQGDKAIIDMEIRIRIGDKEHHIDSELILRKVDGKWFMQEERII | 2.65 |
| SELEKFIRKYSDDWRELHRTGDFEIFQELADPHMIFHSIVGDKRTEIHGRESYIEWLREELEHWRIHHIQLRRSTAIGDFAVVDGELDGEFNGQRERRKVKVDLFVVNGQTKHIEFRIH | 1.19 |
| DRHDKELERFTSDWLTSWHTGDFHRILELLDPDVRYIYGDKEWHGRENVHRAIKELLERLGIDHLHLQRVEIQGEKFKIQTQVHVGDKTINLIIHILVVDGRVREVNMDEK | 1.33 |
| DHVEEDARTRLKLFLTHWLTGDEHSTNELFDPNVRIDVNGKIIVGRHVLSEEWSRLGIKHSILHIDHIHIDEDEIHIDGILRLIFENHVLDLRVNLHAEKYDGRWHSSEVQVK | 1.25 |
| NEDEESIRRAVEHWSKLILTGDESLLRQMADPNVRIQVGDKRIIGMDSLVKLMEDLGWEMEIRTKIRHTEIINGKMHTRTQLDIHFRQGDKKVDIHRDTEIVIEKVDGRWHIHSIRIE | 0.752 |
| SEHEHIAEKMSELLREIVETGDFEQLERLADPHVKLNVDGRNFHGMERFRELKERIRREFGVDHIHVEVERVEVIDGVVINHTKLIIEQGDKRRESRTTLIINKVNGQWRLDSVRVE | 0.488 |
| SETEESLRRYIEDWLTALSTGNEDTLKRLMDPSTRVTVDGVEYHGRSALEEFIKRVDVIHRSDRHDFKIQGEKVHVDVRMDVHIDGQKHTLHSHWLILKINGRWVIHELIFE | 1.99 |
| SEIEKMFHIALKLWVRTMKTGDFEDLLRLLDPNWRLEVNGRTHHGREELEHEIRELGIDQFHLHHIEHKEFLVQGEKITIDGRINGEFNGVQYNTRVIIIAKKINGRWVLHSEEIK | 1.37 |

| Sequence | protease stability score |
| --- | --- |
| DESTKEARKFKHEFDNDWKTGDEDSLLRLADPHVRTDVNGVENHGREDFVKLLMDIFREMRTEMRTRHVTVFNGRIEVHSTLHLHQGDKVIDLEVLIINRKVNGRWILESMEIK | 0.603 |
| SEDEKSIKVAIELIINSVRTGDERFIKELADPHVRLEIGNKRVHGREEFAKLLSEENRQMRIHIIIDDVKSVGDFVFIRGTIEIHIDGVEERREFEIFVWKFNGRWVIKEERIH | 1.43 |
| SEVDEQAEHMSRLYLKLIKTGDEEHLMHLADPHTRLDINGKTFIGMEVVHEFNEKERRRVPNMRIHEKSVKVEVFDGRAFTEIHGEWHFDGVTQEIRIEVRIDKVNGRWTIRSVHVEIR | 0.704 |
| NEDEREFRIFLELFILAMRTGDETTFKKLLDPDVKFRINGKEYHGWEEVWHVLEEIRIHDIKLTDMERVGDKLHLITRVEGEFDGRRHEIDTRLHVRKIDGRWLLRTVEIS | 2.13 |
| DDEDEEVKLIIEEELHLARTGDFERLLELHDPDVRIIFDGREWHGREALRWLYRHLGIDRIDLHFEDVRVINGRVEMDVTENINGRKIKSRIIARKYDGRWINEQVDIK | 2.28 |
| DDTDKLLKEYLEMEMEMIRTGNEHIFTRLADPNVRIEQGDKHFHGREEYKRLMEEHFEKIQHAKIEFRVHDIKRIGDKMYIRGEFIVHVGEYHESQDRIFINRKIDGRWYVEEIIIR | 1.25 |
| SEHDERRRRVLELWFHALHTGDEEKLQELMDPDARLDINGVKLHGRDKLIEFFREWRFKHVDIHDMDEFNGVVNIKIEHVEIYNGQHRRVETRIFLIKINGRWHFRHIELH | 1.66 |
| SEKDERVHELLRHVEHALRTGDWEEMVKLADPHVRVIFNGKTLHGREMMNRFWEHFGADHIRIRDEDDYNGVVIVHIETVVGDKHHHVHIISEKIDGKWTMRELSIE | 0.933 |
| SEKEKDSRIAIELSLKLVLTGNPEMNRELVDPHARVEVGEKEYHGRDWVRYQLELLGIDHFEIHHVDMYGEYVDVTLELRVGDKSFRLILHLEKIDGRWIVRKVHVD | 2.14 |
| HEEHDEMQEALRRFIDILHTGDEKERKELADPHVRIDVDGVDHHGREWLTKWTVRLAREMRIHPEIKHSEVFNGQIELHTSEKVDFNGVHEIIESFLLVIKINGRWFLTHVQVH | 0.92 |
| SELEEESHKFFREFYRVIETGDEDRLEELADPHVRNDFNGVLIHGREEMRKMREKVHKQLGVTRVEVTVRDMKIQGDKAISHGVFHIGEKDFIVTLISEKINGRWILHSIEVR | 1.2 |
| SELEKLSHELARLLIENWETGDWKRFIDLIDPHAKLHIGDKDHIGREEITRFLKEVWHRFDHIEMRIHHIKVIGNYAHSDGEMIININGQERRHDVEIIVVVVNGVVHSVEIHIE | 1.9 |
| DDQEEFLQRLVEELLRIIETGDWRRFWELLDPNMRVDVDGREIHGMEILVTIIRELWRKLGIDHVHIRLDHVEAFNGQAHAETTVDLRYDGQIIIRESRNHFIIIDGKVEDEKYELR | 0.279 |
| DEHDRDARRFTDILLEAFMTGDEDLSHKMLDPNMRLHINGKIHHGRELATELLHEMRIERLVIEDYRIHYQGEKVHVTLHGRLHGRVDGKEHNSEVNIFINIEKVNGKWIVRSFTLKIH | 1.47 |
| NEEEKLSEEWSDHLLHNLITGDEEMLKRFMDPHTWAESEVDGQDEKYHGREQALHMVYRVIHRLGFNHFHIHRHRVIGDKIHVELRIVVGDKEVDAHFETIIINGKVHRIRIHVTKR | 0.323 |
| EEEHELTELLSRLWVHAIRTGDEDTLKELMDPNTRFEINGKEHIGRERLTDAFRELRVHRLHIEHIEIQGDKVLMETRSDIEINGVRRETETRIILHVVNGRIKEVRVHIK | 1.84 |
| DDLEEEAKDAVTKFIHLLLTGDWKEIREMVDPNVRIDVGDKEKHGWEDFIRDALYMHHQVDHIEVRIRHIDIFENRVVTHSVIYIEVNGQDIRLDLTLYIKKINGRWEIRQIEFK | 1.82 |
| DRLEELLRHVSSLFLHSVETGDFDILQKLADPHVRMEVDGKELHGREHMVQRILDEYHKFGFTQIDSRLEDVRVYGDKVEVDLEHHFDGKTYKYEIILRKVNGRWTLESVIVR | 1.22 |
